Assay results from US9902783B2, “Antibodies and pharmaceutical compositions containing same useful for inhibiting activity of metalloproteins” (Yeda Research and Development Co. Ltd., priority 2007, dated 2018).

B1: 13E11: monoclonal antibody, IgG2b, raised against the hapten CoTCPP (antibody, V domains shown)
VH: EGGGLVQPGGSRKLSCAASGFTFTSFGMHWVRQAPEKGLEWVAYISSGNEIIYYADTVKGRFTISRDNPKNTLFLQMTSLRSEDTAMYYCARNYYRYGFYVMDYWGQG
VL: EIVVTQSPAILSASPGEKVTMTCRASSSVSYMHWYQQKPGSSPKPWIYATSNELASGVPARFSGSGSGTSYSLTISRVEAEDAATYYCQQWISNPLTFGAG
modifications: 13E11 mAb heavy chain; 13E11 mAb light chain
notes: monoclonal antibody, IgG2b, raised against the hapten CoTCPP
B2: 6C6: monoclonal antibody, IgG2a, raised against the hapten Imisdp; MMP-2 and MMP-9 inhibitory; SEQ ID NO: 1 (protein)
chain: CMETTQTPLSLPVSLGDQASISCRSSQSIVHSNGNTFLEWYLQKPGQSPKLLIYKVSNCRFSGVPDRFSGSGSGTDFTLKISRVEAEDLGVYYCFQASHVPPTFGGG
modifications: 6c6 mAb light chain

How the values were obtained:
Format in all cases: binding
[1] = target: Heme group within Hemoglobin (Homo sapiens, UniProt P68871+P69905); experiment: cross reactivity, competitive ELISA and immuno affinity assay, Hemoglobin
Description: (§1) The selectivity of anti CoTCPP and anti Imisdp was further challenged, by testing their cross reactivity with non related zinc dependent enzymes—Carbonic Anhydrase (CA) and brockii alcohol dehydrogenase (TbADH). Similar to active MMPs CA contains a zinc ion that is tetrahedraly coordinated to three histidine residues and a water molecule, TbADH contains a catalytic zinc ion that is tetraheadrally coordinated to four different amino acid residues, histidine, cysteine, aspartate and glutamate. […] Anti CoTCPP mAb was also tested for its cross reactivity with related physiological porphyrins such as the Heme group within Myoglobin and Hemoglobin and vitamin.

[2] = target: T1, Heme group within Myoglobin (Homo sapiens, UniProt P02144); experiment: cross reactivity, competitive ELISA and immuno affinity assay, Myoglobin
T1 sequence (P02144 1-154): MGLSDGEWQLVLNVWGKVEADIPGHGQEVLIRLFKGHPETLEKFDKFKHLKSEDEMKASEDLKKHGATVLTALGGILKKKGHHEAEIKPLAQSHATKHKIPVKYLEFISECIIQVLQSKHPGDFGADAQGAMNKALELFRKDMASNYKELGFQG
Description: as §1

Pro-MMP-9 = Pro-MMP-9 (Homo sapiens, UniProt P14780)
[3] = target: T2, MMP-2 catalytic domain (MMP-2cat) (Mus musculus, UniProt P33434); experiment: immuno affinity pull down of MMP-2 catalytic domain; details: SDS-PAGE
T2 construct: NP_032636.1; made in house; host or cells: BL-21 cells (E. coli)
Description: FIGS. 3A-3C are western blot images showing the ability of mouse IgG-Agarose immobilized mAbs to pull down recombinant MMP-2 catalytic domain (MMP-2cat) or Pro-MMP-2 and Pro-MMP-9 from solution. Antibodies used for each experiment are 6C6, 13E11, and 13E15. FIG. 3A—MMP-2cat (2 μg) was incubated with anti-mouse IgG-Agarose (cntl, lane1) or anti CoTCPP, ZnTCPP and Imisdp mAb (10 μg)-anti-mouse IgG-Agarose for 2 hr at 20° C., immunoprecipitates (lane 2, 3, 5) were centrifuged and washed three times, separated on SDS/PAGE gel and visualized by Coomassie-staining. […]
FIGS. 11A-11D are photographs and models illustrating that 6C6 binds only the active conformation of MMP9 and MMP2. […] FIGS. 11B,C: 6C6 mAb immobilized to protein A beads was analyzed for its ability to pull down ProMMP2, ProMMP9, or MMP2 catalytic fragment (lacking the hemopexin and pro domains) from solution. […]
MAbs (10 μg) were incubated with anti mouse IgG Agarose beads (Sigma) overnight at 4° C. in PBS. […] The proteins that remained bound to the beads were eluted with SDS sample buffer, fractionated by SDS-PAGE, and detected by staining with Coomassie blue.

T2 sequence (P33434 110-467): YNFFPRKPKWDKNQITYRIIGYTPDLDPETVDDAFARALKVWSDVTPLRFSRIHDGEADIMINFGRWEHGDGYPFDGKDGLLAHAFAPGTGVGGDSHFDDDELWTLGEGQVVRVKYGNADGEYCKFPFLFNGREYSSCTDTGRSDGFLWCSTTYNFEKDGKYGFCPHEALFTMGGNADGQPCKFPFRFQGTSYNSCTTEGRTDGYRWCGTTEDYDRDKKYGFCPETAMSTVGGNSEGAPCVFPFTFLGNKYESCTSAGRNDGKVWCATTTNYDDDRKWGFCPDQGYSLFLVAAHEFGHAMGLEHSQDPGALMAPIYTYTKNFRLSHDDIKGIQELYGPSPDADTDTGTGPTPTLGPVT
Chain of Heme group within Hemoglobin (P69905 2-142 limits assumed): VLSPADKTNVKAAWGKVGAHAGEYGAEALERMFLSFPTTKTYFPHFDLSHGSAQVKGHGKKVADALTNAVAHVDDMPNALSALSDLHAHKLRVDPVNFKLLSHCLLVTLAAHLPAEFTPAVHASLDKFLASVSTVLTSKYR
Chain of Heme group within Hemoglobin (P68871 2-147 limits assumed): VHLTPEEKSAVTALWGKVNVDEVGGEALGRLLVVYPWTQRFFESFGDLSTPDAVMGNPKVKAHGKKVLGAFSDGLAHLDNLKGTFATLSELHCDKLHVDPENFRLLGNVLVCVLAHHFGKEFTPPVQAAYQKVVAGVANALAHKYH
Chain of Pro-MMP-9 (P14780 20-707 limits assumed): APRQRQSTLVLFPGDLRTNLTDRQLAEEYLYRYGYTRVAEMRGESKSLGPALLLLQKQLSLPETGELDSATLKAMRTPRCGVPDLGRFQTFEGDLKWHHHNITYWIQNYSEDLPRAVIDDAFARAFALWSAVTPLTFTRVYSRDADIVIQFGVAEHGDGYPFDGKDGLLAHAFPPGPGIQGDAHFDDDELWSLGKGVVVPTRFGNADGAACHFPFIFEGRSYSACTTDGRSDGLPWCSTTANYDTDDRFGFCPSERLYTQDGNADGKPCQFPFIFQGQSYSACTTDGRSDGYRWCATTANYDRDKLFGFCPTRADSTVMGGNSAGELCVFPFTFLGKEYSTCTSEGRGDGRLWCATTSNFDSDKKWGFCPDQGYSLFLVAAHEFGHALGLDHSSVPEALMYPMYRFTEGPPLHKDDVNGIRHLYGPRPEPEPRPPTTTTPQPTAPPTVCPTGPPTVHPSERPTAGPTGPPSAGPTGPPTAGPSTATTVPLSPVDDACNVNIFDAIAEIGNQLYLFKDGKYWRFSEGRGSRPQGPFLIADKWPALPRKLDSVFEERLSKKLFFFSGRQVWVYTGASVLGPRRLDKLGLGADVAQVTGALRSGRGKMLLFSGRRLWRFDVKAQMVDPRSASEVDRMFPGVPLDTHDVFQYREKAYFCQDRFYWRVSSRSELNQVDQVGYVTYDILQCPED

Molecule	cross reactivity with Hemoglobin [1]	cross reactivity with Myoglobin [2]	binding to Pro-MMP-9 (Pro-MMP-9)	binding to MMP-2 catalytic domain [3]
B1	No cross was detected	No cross was detected	–	–
B2	–	–	did not bind	formation of a specific complex
